Test results: the domain aggregation screens of Martell et al. (2025)

Assay: soluble fraction after stress (log2 fold change); higher = more stays soluble; pooled small domains, quantitative proteomics
Settings: stress: pH 4
Summary of the method: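 Values are log2 fold changes, and higher ones mean more of the domain stayed soluble. Each fold change reflects the soluble amount of a domain after acid stress and is taken as a measure of aggregation propensity. The stress was pH 4, applied to pooled custom libraries of small protein domains analysed by high-throughput quantitative proteomics.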

Sequence	soluble fraction (log2)
HMNPSPYLRRHLSGDWGDLDEDDRRSNDAALASGEARLLSSYQVDPDLKLWIITEWDRSVTTLLLPSE	≥ 0.43
HMNETNKMPNLVNQTDSSAIAQLNAMELGLKITTKEESSETVLAGYVIRTEPAADTELTKNQAVTVYVS	0.0693
HMQKLSPKQRRGNIIELIKENPTITAKNISTIFNLNQRTIERDLAKLTEEGYIKYEGSSKDGKWVFL	≥ 0.43
HMKSLHSEVTDRIRQLIVESHLQPGQRVPELEISRDLGVSRTPIREALKVLAAEGLVELLPLRGAMVK	-0.104
HMERDIATKHEVNRTVEAYSDIVKTLNLPSHKINLVEISFFNILKRSKPSPRENSILLGLAQKIKLHLEKK	-0.473
HMREISSDELHSLFSADQRGDLVINETTRLSIEKLYALHTPEEREAKVNELSGVLPSEAHRQLVHFLDYFD	-1.54
HMQQIEIEEPITVKNLSAVAGLKASEIIAKLMKLGVMSTINQVMERQHAEEIAGEYGFELVVK	-0.154
HMTYADTRDLLIRRGMELLTEQGIAATSIERVLQSTGIPKGSFYHYFATKHDFTLAVMDAYHHY	-0.324
HMSHISLGQRYKIEGYLQINLKRTQIAKEIGLPKKTVNQEIKRNSNPQTGIYKAEEAHQLYLDRMQKKRK	0.426
HMIAITVGSKVRVKAGATFSDGTKPFTEVYNTVYDVQLLSRNGKEARIGIGEQWTGWMYISDLYPADQ	0.00391
HMRGAARRDRAVGERAVSKDTILDATRALLRKGSALEIRAIDIAEESGLSRQTVFQYYPVIRLIFFELSD	0.155
HMTIGEALLNLRKQLGLNQTEMAANVVSTSFYSKVERNIHDIGTKDLLQILNKHQINATYFFENLN	-0.446
HMSDFEASDPALLREGMRVQHLNFGKGTVITIEGAGANKKASVAFDGVGTKQLMLRFARLKIIYE	-0.622
HMNNMVNTLLKLLAEQDVLRGIVRRFTPSSVFVFLQNEEVEVELPLQGRSLAPGQLVELTQEGASVALKRL	-0.679
HMVSSAEQQARDKESGMILVQEAGGPDKARALVEKMRQDIRNPALDGTRRQMLRGHVARIELALAELETG	-0.0115
HMKREELTQQTKQNLREAFWSLYIQKPIEKITVKEITDIAGYNRGTFYLYYKDTYDLLAKIE	-0.646
HMHADIAATVVATMRQLGVLGLPRNYEIFYEALSGTNRELSLAVVSLSNRPTQDDLDRIGRRFFA	-0.426
HMPAVGGVVKGAVVSVGRNEVRLDIGGLAIGIIRGPELDKHVDLRIGDEVEATVITLDNEFGELELSL	-1.73
HMQQEAVNLVQSRGQQAIEPVHIMQGVMKVGENVTNFIFQKLGMNGQQVALVVDKQIDSLPKVSGGEPYL	-0.0637
HMVWMIEKDQSVILVNKLERIQVEALGKALENGNFGDRIRVINNKSGQKLLGIVESEKKIQIISKI	-0.077
HMFDLSQRQEQIIEIVRKHGPITGEKIADLLYVTRAALRPDLAILTMSGYLEAKPRVGYTYK	-0.0725
HMVTPAQQARDTLLGALVGLARATTSEPKTDDTDVVLNAGLRLAAQPDAPEERLQRMLAIVQTEKHRV	0.215
HMDLYIILGLERSATLSDVRRAYRRLARKYHPGINPGDRNSASVFTRVSEAYQVLSDPEQRRRYDSR	-0.583
HMILVLKPGAPEDLKNELIHDIEKMGLRVHVSVGEGTTIIGLIGDTSKISKYTFSSYEIVSNVLRVT	-0.35
HMTRVDKLQTWLSLPREQRDWDEGALMLLQLTGNKIMYRNLSVNPEGKANFIEGKLQQYLEFRLA	-1.16
HMSSIDLTARSGRAALKHRLSLLGYEFSKIELETLYVRFIELADEKKLLHDEDLIELVKEKN	-0.655
HMQPQYSVLFSNIEEKDGGSIITLLQQGNVPYKVENGGTTILVPANRANELRLTLAAQGLPK	0.223
HMKTALDEAKDFLNGALSKGHRPASDVVDEAKEASISEKTLKRAKLAIGIITRKEGFGSEGKWVWELPAR	0.0771

Sequence	soluble fraction (log2)
HMLGFELVGIRGNNPESTIIILERDDYRLVEQGQNINSSVIFSHIDGSRAYFFDGQTYTFLDI	-2.77
HMEGAEDMNRALALAFLRDNSRSTVAQLAEHLGSSKRSAERLVAQLKDEGVLERQGSPRAGLWIVHI	0.221
HMEAISIYPNPTDNELHLSTSVQEVRIYNMYGIEVTRAANTDRLAVSHLPKGVYLVHADGAVLKMIK	-1.29
HMGASLVIVPGAGFLRVSASSQTRLDVYSITGMRVRSVDFEPGTTEIELPAGFYIAGGRKFFV	-0.124
HMVDPAFLAWQQKPENTWFGTDRRKTALAIAIAEEIRNDPANSNLVGAAFYARVAEETEETLN	-1.23
HMSRQDYLQTIYRLSVGKGYTTNKKIADFLSVSKPSVTEMIGKLQGEGLVAMDGAHIFLTEDGAEQ	0.108
HMDRVSEITLTRLRDYAADGQVRTATLTHRTNVVTGTLRDGRRFSAGVPPMYGDELTTFLLDNGVRVDSDN	-0.276
HMEAGTVTVTHAAVYIRSGPGVSYPIAGKAAKNDTYTVLQKDGDWFQIRLPQGNTGWIAGWLVETGT	-0.133
HMLPKILVMDGKVNKNALTTLGKDEEWVKKVLRNHNIHSIKDVLLALYDTKGKFQYQLYDDYEK	-0.019
HMGAAFITSSKDNAINIRQSANTDSKVIETVTNGQILESNEKSGEWHKVTYYDNDIKKSFTGYVHEGQLK	-0.129
HMVTVNAFGKSGPEPAAMTKEALAKGADEVRVIVDSPTAAASVRDFLIGAGLRVQLQDDEGQLIVVGEKK	0.344
HMIADSSSIHQDAKQQLHSYLRTNIQPLMRAGKQLDLKDILHHVTIRKPKLVQQLGMKQVQHMVQVLLD	0.184
HMDEVPMPPEYQYLRVGSRVHHATFGWGKVTRLSQPWPQTRAEVFFENIGPKKLVLAHAHLTMD	0.113
HMDFTHFTLKQDGKFAGSSNLLHQAVIAAARLAAETGKPVTVMAHVRGGGTRKAVFNPDGTNDKIWN	-0.0338
HMSELIDSLTEAVRSAPDAVPLRLHLAELLLADGQRDRAFAQLGQVLAKDPQNARALEMLGVGS	-0.373
HMRRSSQQLTLTEVSTIKEMVTSEEYRHVPTGTLALLAQRLRKVFASSSTWYRLVRIYKWRRPRGRIH	0.296
HMAIIQSNNIFKSQKEIVDEILVELDIPKDKWNFFHMLISSGYKDEFDTNRIYEIIQTNYNMMDR	-0.693
HMEMNPLDIQNKAAELAQQWLQLPVGERQKQMAAVRTSNPNLHAMAKQKMEEMRSQAESQGRQSLSQP	-0.0586
HMKSLLTARQLEVFEIARNKGYWTTPRKISLVELSKLLDISKSTLSVLLHSIEGKVMEEFYEEIRQ	0.0209
HMNSKMTYSELVTNITNKEVESIKISSTGSTASVKLKNSKSEKEVNIPSLDSFMSYTEEYLKTGDFTLDEE	-0.824
HMEIESAHAQVLGVREIAASGATQHWIAFRFSDGHQRELLATPSQADVIFRGQQGVVHFAGDRLTGWIPE	-0.198
HMDPSWVPVFNNLRDAILSHQLLPGTRLAEDELSNIYGLGRTVIRSALGALTHEGLLTHIPNRGVHVAKP	-0.585
HMSASIAEGTVIMLENTTNIRSGMSEDSSKVGTAYAGEKVTVVMSYAEGWTKVKWNGETGYIKTALLQL	-0.405
HMQTLGADLRALRKARGLTLTDMAETLGRSVGWLSQVERDLSEPSITDLRHMARTLGVSVSMLFS	-0.553
HMSTMLPFVMRELVELVMKKKALPLGDALYYIYSSKLYKSLLDKSTKLWYSSTLSLYETLEKEKTEEKRRY	-0.802
HMETVRHFRLDWSQAADRLDKVLASLMNDVSRARIQEWIRLGAVSVNGEILTDVRAKVAGGDAIDVTPQTA	-0.0931
HMARDPWDVLGVAKTATNDEIKRAFKRQAMMTHPDKQGGSEERFKEVNEAYSHIKDEQSRAKYQNSQ	0.0164
